Measurements reported in article PMC4428071, “Structural basis for epitope masking and strain specificity of a conserved epitope in an intrinsically disordered malaria vaccine candidate” (Scientific Reports, 2015).

Experiments:
[1] = molecular target: mouse monoclonal antibody 6D8 (mouse); assay: SPR
6D8 scFv (mouse) = assay: ITC; Microcal ITC-200; MSP2 or peptide titrated into 6D8 scFv or 6D8 IgG
6D8 scFv (mouse), sequence (heavy, as listed by the source, chain 1 of 2): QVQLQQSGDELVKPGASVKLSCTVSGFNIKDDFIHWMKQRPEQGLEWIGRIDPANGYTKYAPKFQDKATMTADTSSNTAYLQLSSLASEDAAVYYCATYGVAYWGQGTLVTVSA
6D8 scFv (mouse), sequence (light, as listed by the source, chain 2 of 2): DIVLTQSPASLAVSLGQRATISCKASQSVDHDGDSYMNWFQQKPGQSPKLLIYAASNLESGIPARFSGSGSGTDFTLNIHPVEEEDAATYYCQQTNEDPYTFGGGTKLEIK

mouse monoclonal antibody 6D8 (mouse), sequence (heavy, as listed by the source, chain 1 of 2): as the sequence (heavy, as listed by the source, chain 1 of 2) above
mouse monoclonal antibody 6D8 (mouse), sequence (light, as listed by the source, chain 2 of 2): as the sequence (light, as listed by the source, chain 2 of 2) above

Row | Binder | Kd [1] [nM] | Kd (6D8 scFv (mouse)) [nM]
1 | Ac-NNAYNMSIRR-NH2 [MSP2_(13-22)] | 14 | –
2 | Ac-FINNAYNMSIRRS-NH2 [MSP2_(11-23)] | 6 | –

The next lines start with the values.

Row | Kd [1] [nM] | Kd (6D8 scFv (mouse)) [nM] | Binder
3 | 34 | – | Ac-AYNMSIRRS-NH2 [MSP2_(15-23)]
4 | 6 | < 5 | Ac-NAYNMSIRR-NH2 [MSP2_(14-22)]
5 | 87 | – | Ac-AYNMSIRR-NH2 [MSP2_(15-22)]
6 | 16 | – | Ac-NAYNMSIRRS-NH2 [MSP2_(14-23)]
